Data on 3 molecules can be found in article PMC10583499 (Science translational medicine, 2023).

The target of test [1] is biotinylated NRP2 (epitope binning) (Homo sapiens, UniProt O60462-3, biotin (site not stated)). The test is described as follows: BLI. For orientation: In BLI a coated tip is dipped into the sample, and binding shifts an interference pattern.
The target of test [2] is T1, human NRP2 (v2, NM_003872.3), untagged, stably overexpressed on Expi293F cells (Expi293F-hNRP2) (human, UniProt O60462-3 21-926).
T1 sequence (looked up): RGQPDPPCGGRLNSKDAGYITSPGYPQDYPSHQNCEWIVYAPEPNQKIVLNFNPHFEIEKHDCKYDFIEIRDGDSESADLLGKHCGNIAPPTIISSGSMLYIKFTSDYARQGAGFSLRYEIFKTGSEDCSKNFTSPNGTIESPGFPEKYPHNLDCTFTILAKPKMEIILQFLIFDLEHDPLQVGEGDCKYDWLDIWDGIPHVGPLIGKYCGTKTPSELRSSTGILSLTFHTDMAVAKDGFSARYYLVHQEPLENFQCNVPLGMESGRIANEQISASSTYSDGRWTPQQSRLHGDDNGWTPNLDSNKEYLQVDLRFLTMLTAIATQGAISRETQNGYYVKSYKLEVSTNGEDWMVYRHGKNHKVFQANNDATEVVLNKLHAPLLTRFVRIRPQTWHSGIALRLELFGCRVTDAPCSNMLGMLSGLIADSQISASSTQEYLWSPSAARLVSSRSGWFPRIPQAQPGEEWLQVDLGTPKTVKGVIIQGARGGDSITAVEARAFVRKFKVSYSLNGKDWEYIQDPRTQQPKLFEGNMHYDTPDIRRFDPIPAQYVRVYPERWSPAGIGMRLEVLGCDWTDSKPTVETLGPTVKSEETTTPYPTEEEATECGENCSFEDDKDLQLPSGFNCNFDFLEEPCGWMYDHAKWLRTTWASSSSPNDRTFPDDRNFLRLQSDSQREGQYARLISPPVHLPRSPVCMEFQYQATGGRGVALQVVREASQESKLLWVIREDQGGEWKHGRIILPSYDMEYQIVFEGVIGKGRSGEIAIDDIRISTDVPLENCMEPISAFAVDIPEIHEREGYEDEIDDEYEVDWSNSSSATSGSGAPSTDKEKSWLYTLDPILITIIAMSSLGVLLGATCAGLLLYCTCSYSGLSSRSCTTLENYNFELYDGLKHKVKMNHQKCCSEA
The test is described as follows: flow cytometry on cells. Background: A flow cytometer gives signals particle by particle.

Test [3] concerns the target His-tagged hNRP2 (amino acids 146 to 595), a2b1b2 domains, for crystallization (human, UniProt O60462-3). The experiment in a line: crystal structure.

B1: Genentech aNRP2B antibody (antibody, V domains shown)
VH: EVQLVESGGGLVQPGGSLRLSCAASGFTITSSGIHWVRQAPGKGLEWVARITPYDGSTDYADSVKGRFTISADTSKNTAYLQMNSLRAEDTAVYYCARYRGRLLFDYWGQGTLVTVSS
VL: not shown
B1: the binding result in test [1] was “binds”.

B2: recombinant human VEGF-C, untagged (ligand, UniProt P49767 112-227, looked up)
chain: AHYNTEILKSIDNEWRKTQCMPREVCIDVGKEFGVATNTFFKPPCVSVYRCGGCCNSEGLQCMNTSTSYLSKTLFEITVPLSQGPKPVTISFANHTSCRCMSKLDVYRQVHSIIRR
The term EC50 denotes the concentration needed to bring the measured effect to its halfway point. A low value points to greater potency. Take B2: in test [2], the EC50 is 0.6 nM.

B3: aNRP2-10 Fab (Fab, V domains shown)
VH: EVQLVQSGAEVKKPGATVKISCKVSGFNIKDYYIHWVQQAPGKGLEWMGRIDVEDDETKYAPKFQGRVTITADTSTDTAYMELSSLRSEDTAVYYCATPIYGSREAWFAYWGQGTLVTVSS
VL: DIQMTQSPSSLSASVGDRVTITCTASSSVSSSYLHWYQQKPGKAPKLLIYRTSNLASGVPSRFSGSGSGTDFTLTISSLQPEDFATYYCHQYYRSPPTFGGGTKVEIK
On to B3, for which the binding result in test [3] was “binds”.
